From patent publication US7517652B2, “Methods of diagnosing tumors using the G-protein coupled receptor (GPCR), RAI-3” (Bristol-Myers Squibb Company, priority 2002, dated 2009)

Tested on: Flag-RAI-3
Assay: Anti-FLAG immunoprecipitation and anti-phosphotyrosine Western blot of A549 cells transiently transfected with Flag-RAI-3
Type: cell-based, human
Settings: CS-160 1 to 3 hours, EGF 10 nM
Method: FIGS. 26A and 26B illustrate the results of Western Blot analysis of an A549 cell line (Human Lung Carcinoma CCL-185, American Type Culture Collection, Manassas, Va.) transiently transfected with a FLAG RAI-3 construct (described herein). Media on the cells was changed to serum-free and 48 hours port-transfection the cells were treated with cigarette smoke-bubbled media (i.e., CS-160, the equivalent of 160 cigarettes per 500 ml of cell medium) for the periods of time shown (1 hr., 2 hr., and 3 hr.) and with EGF (10 nM) for 5 minutes. Lysates were immuno-precipitated with 2 μg of anti-FLAG M2 antibody (Catalog # F-3165, Sigma, Saint Louis, Mo.) and 40 μl of Protein A. The Protein A/lysate/antibody mixture was washed, aspirated “dry”, and 60 μl of 2×SDS-PAGE sample buffer was added. After heating at 95° C. for 10 minutes, the samples were loaded onto two 4-20% gradient gels, resolved by SDS-PAGE and transferred to nitrocellulose by standard Western Blotting techniques.
The A549 cell line (American Type Culture Collection, Manassas, Va.) was plated in 100 mm petri dishes and transfected at about 75% confluency. […]

B1: epidermal growth factor (protein, UniProt P01133 23-1207, looked up)
Pro-epidermal growth factor: PQHWSCPEGTLAGNGNSTCVGPAPFLIFSHGNSIFRIDTEGTNYEQLVVDAGVSVIMDFHYNEKRIYWVDLERQLLQRVFLNGSRQERVCNIEKNVSGMAINWINEEVIWSNQQEGIITVTDMKGNNSHILLSALKYPANVAVDPVERFIFWSSEVAGSLYRADLDGVGVKALLETSEKITAVSLDVLDKRLFWIQYNREGSNSLICSCDYDGGSVHISKHPTQHNLFAMSLFGDRIFYSTWKMKTIWIANKHTGKDMVRINLHSSFVPLGELKVVHPLAQPKAEDDTWEPEQKLCKLRKGNCSSTVCGQDLQSHLCMCAEGYALSRDRKYCEDVNECAFWNHGCTLGCKNTPGSYYCTCPVGFVLLPDGKRCHQLVSCPRNVSECSHDCVLTSEGPLCFCPEGSVLERDGKTCSGCSSPDNGGCSQLCVPLSPVSWECDCFPGYDLQLDEKSCAASGPQPFLLFANSQDIRHMHFDGTDYGTLLSQQMGMVYALDHDPVENKIYFAHTALKWIERANMDGSQRERLIEEGVDVPEGLAVDWIGRRFYWTDRGKSLIGRSDLNGKRSKIITKENISQPRGIAVHPMAKRLFWTDTGINPRIESSSLQGLGRLVIASSDLIWPSGITIDFLTDKLYWCDAKQSVIEMANLDGSKRRRLTQNDVGHPFAVAVFEDYVWFSDWAMPSVMRVNKRTGKDRVRLQGSMLKPSSLVVVHPLAKPGADPCLYQNGGCEHICKKRLGTAWCSCREGFMKASDGKTCLALDGHQLLAGGEVDLKNQVTPLDILSKTRVSEDNITESQHMLVAEIMVSDQDDCAPVGCSMYARCISEGEDATCQCLKGFAGDGKLCSDIDECEMGVPVCPPASSKCINTEGGYVCRCSEGYQGDGIHCLDIDECQLGEHSCGENASCTNTEGGYTCMCAGRLSEPGLICPDSTPPPHLREDDHHYSVRNSDSECPLSHDGYCLHDGVCMYIEALDKYACNCVVGYIGERCQYRDLKWWELRHAGHGQQQKVIVVAVCVVVLVMLLLLSLWGAHYYRTQKLLSKNPKNPYEESSRDVRSRRPADTEDGMSSCPQPWFVVIKEHQDLKNGGQPVAGEDGQAADGSMQPTSWRQEPQLCGMGTEQGCWIPVSSDKGSCPQVMERSFHMPSYGTQTLEGGVEKPHSLLSANPLWQQRALDPPHQMELTQ
modifications: Pro-epidermal growth factor
B1 was tested, and the “tyrosine phosphorylation of recombinant Flag-RAI-3 protein” value was “does not appear to cause tyrosine phosphorylation”.
